What was measured:
[1] = system: β-lactamase translocation in E. coli JM109(DE3); assay: Immunoblot of transported and processed β-lactamase; format: cell-based, Escherichia coli; settings: per cell basis, four hours, ampicillin 50 μg to 3 mg/ml
Experimental: Changes to β-lactamase transport were monitored by two different approaches: 1) the ability to form colonies on solid LB-agar plates containing increasing concentrations of ampicillin (50 μg/ml to 3.0 mg/ml); and 2) the level of transported and processed β-lactamase detected by immunoblotting total protein samples of cells grown in LB-broth containing increasing ampicillin concentrations.
The same cells were also used to determine the level of transported β-lactamase grown in media containing increasing concentrations of ampicillin. Cultures were diluted 5× into LB broth with increasing amounts of ampicillin (50 μg/ml to 3.0 mg/ml) and allowed to grow up to 4 hours. The level of transported β-lactamase was monitored by immunoblotting analysis of samples taken at time intervals of 0 hr, 0.5 hr, 1.0 hr, 1.5 hr, 2.0 hr, 3 hr and 4 hr. Immunoblot analysis was performed on total cellular protein samples with anti-p-lactamase antibodies as outlined above.

[2] = system: Brassica napus; assay: Seed size of transgenic plants carrying the CaMV-Bce44B-NOS transgene; format: in vivo; settings: primary generation of transgenic plants
Excerpt: (§1) Transgenic plants (Brassica napus, Arabidopsis thaliana and Lycopersicon esculentum) with altered plastid protein transport capacity were produced by introducing a transgene construct consisting of DNA encoding the Bce44B protein and a 5′ untranslated region immediately upstream of the Bce44B coding sequence. Expression of the construct was obtained by linking the cauliflower mosaic virus 35S promoter (Odell, J. T. et al. (1985) Nature 313:810) upstream. Transcriptional termination was facilitated by the gene encoding nopaline synthase (NOS) found in Agrobacterium Ti plasmids or their derivatives such as pBI101 (Clontech). Construction of the 35S CAMV-Bce44B-NOS transgene construct is diagrammed in FIG. 6.
(§2) Agrobacterium strains containing the pEND4K-CAMV-Bce44B-NOS plasmid were used to transform plants following a leaf disc transformation protocol, such as the one described by Horsch et al. (1985) Science 227:1229), or by in planta methods which can include the seed transformation protocol reported by Feldmann and Marks (1987) Mol. Gen. Genet. […]

[3] = system: Lycopersicon esculentum; assay: as above; format: in vivo; settings: primary generation of transgenic plants
Excerpt: as §1, §2

[4] = system: alkaline phosphatase translocation in E. coli JM109 (DE3); assay: Induction and transport of alkaline phosphatase under phosphate starvation (immunoblot); format: cell-based, Escherichia coli; settings: low phosphate (50 μM), cells harvested at the two growth peaks
Excerpt: The directionality of the distribution of Bce44B in the cytoplasmic membrane and the capability of the bacterium to recognize and integrate Bce44B into the membrane raised the possibility that Bce44B may be functional as a foreign component of the bacterial protein transport apparatus. Functionality of Bce44B was therefore assessed by monitoring two transported bacterial proteins, alkaline phosphatase and , β-lactamase. Alkaline phosphatase is a single copy gene and is transported into the periplasm upon induction by phosphate starvation (50 μM) (Torriani et al. (1960) Biochim. Biophys. Acta. 38:460). The growth characteristics of Bce44B-containing bacteria were compared to those of a strain expressing Oee1-Dhfr, a chimeric chloroplast protein precursor. The expression vector used in the Oee1-Dhfr transformed strain was the same as the one in the Bce44B transformed cells. Growth was monitored in M9 minimal media with growth-permissive phosphate levels or with low phosphate levels (50 μM).
The induction and analysis of alkaline phosphatase was performed as described by Torniani et al. (1960) Biochim. Biophys. Acta. 38:460. […]

B1: Bce44B: plastid transport protein, Brassica napus 44 kDa chloroplast envelope protein, member of Com44/Cim44, encoded by SEQ ID NO:1 (protein)
chain: MQTAMKTMMNQMNTQNSQFNNPGFPTGAGAGAGSPFPFPFPPQTSPTTSPFQPQSQSSGATVDLTATKVDRPPVSKPQPTPIPPTKSIEVYKPSVVVEENKAMKEEKNYAFEDVSPEETTKESPFSNYEEVSETSAPKETRLFDDVLQNGAAPANGATASDVFQSLGAGKGWAGGSVEVLEKMIEYPTFQKMLYPHLPEEMRNPESFKWVRKNPQYRQQLQDMLNNMSESGEWDKRMTETLKNFDPNSPEVKQGFDQLGLTPEEVISKIMENPDVSMAFQNPRVEAALMDCSENPMNIMKYQNDKEVMDVFNKISQLFPGLTG
level of processed β-lactamase compared with Oee1-Dhfr-expressing cells [1]: higher | seed size relative to wildtype counterparts or pEND4K-only control plants [2]: approximately twice | seed size relative to wildtype counterparts or pEND4K-only control plants [3]: approximately twice | level of processed alkaline phosphatase relative to Oee1-Dhfr-expressing cells [4]: higher level
